Source: US20230312753A1 (IMMUNORIZON, published 2023)

Columns and labels:
[1] = biological target: T1, NKG2A on NK92 cells (endogenous) (UniProt P26715 1-233, limits assumed); test: FACS on NK92 cells (FIG. 45C)
T1 construct: whole, on cells
Protocol: (§1) Suspension cultured cells was harvested directly, and adherent cell were digested using TrypLE Express Enzyme (cat: 12604-013, supplier Life technologies). Centrifuge at 1000 rpm for 5 min and discard the supernatant. Cells are suspended at a concentration of 2×10⁶/mL in FACS buffer (2% FBS in PBS) and add 100 µL/well of cell suspension to the plate (cat #3799, supplier Corning). Centrifuging the plates at 2000 rpm for 5 min and discard the supernatant. Re-suspend the cells in 100 µL/well of Tribody set antibodies (400 nM start, 4-fold dilution, 8 point including 0 point) and incubate the plate for 60 min at 4° C. Centrifuge the plate at 2000 rpm, 4° C. for 5 min and discard supernatant. Then wash the cells 3 times with 170 µL FACS buffer. Re-suspend the cells at 100 µL/well with secondary antibody (goat anti-human Ig Fab-FITC, Cat # 2085-02, Southern biotech) with 1:400 dilution and incubate the plate for 30 min at 4° C. in dark. Centrifuge the plate at 2000 rpm, 4° C. for 5 min and discard supernatant. […] The fluorescence intensity of the staining was measured using flow cytometer (BD, FACSVerse). The geometric mean fluorescence intensity (GMFI; median fluorescence intensity (MFI)) of set antibodies staining was calculated (BD FACSuite software). Dose-response curves were generated and EC50s for thetrispecific variants binding were calculated using GraphPad Prism software.

[2] = biological target: T2, h5T4-His (recombinant human 5T4) (human, UniProt Q13641 32-355, limits assumed); test: ELISA on coated h5T4-His (FIG. 43B)
T2 construct: Bought protein; also called recombinant 5T4
T2 sequence (looked up): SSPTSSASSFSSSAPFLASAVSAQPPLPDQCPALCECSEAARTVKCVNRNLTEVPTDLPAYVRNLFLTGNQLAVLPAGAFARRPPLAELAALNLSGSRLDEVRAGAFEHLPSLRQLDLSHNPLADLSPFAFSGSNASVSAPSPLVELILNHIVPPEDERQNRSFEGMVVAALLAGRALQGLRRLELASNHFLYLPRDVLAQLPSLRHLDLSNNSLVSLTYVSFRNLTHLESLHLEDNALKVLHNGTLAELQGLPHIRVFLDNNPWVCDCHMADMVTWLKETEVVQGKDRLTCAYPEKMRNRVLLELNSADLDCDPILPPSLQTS
Protocol: (§2) Methods: ELISA binding of Tribody/ProTribody antibody constructs to antigens: Dilute target protein (hCD3epsilon-His (cat # 10977-H08S, supplier Sino Biological); h5T4-His (cat# 19845-H08H, supplier Sino Biological); NKG2A-CD94-ECD-hFc, Lot:20200724002, provided by CP; or NKG2D-ECD-hFc, Lot: 20200413002, provided by CP) into PBS with final concentration of 0.01 µg/mL for hCD3epsilon-His, 0.3 µg/mL for h5T4-His, 1 µg/mL for NKG2A-CD94-ECD-hFc and 0.7 µg/mL for hNKG2D-ECD-hFc respectively and coat 100 µL/well on ELISA plate (cat: 9018, supplier Corning) respectively. Incubate O/N, 4° C. The plates were blocked with 250 µL 1% BSA in PBST for 1 hr at 37° C.Wash 4 times with PBST. All the washes are done using Biotek (Elx 405). All the Tribody set antibodies were diluted to 400 nM and make 4-fold serially dilutions (12 points, including 0 point). Add 100 µL/well diluted antibody constructs solution to plate, incubate for 1 hr at 37° C.Wash 4 times with PBST. Add 100 µL/well anti-human kappa light chain-HRP (1:10000), incubate for 0.5 hr at 37° C. Wash 4 times with PBST. 100 µL/well of TMB substrate was added and incubated at room temperature for 5 min. 100 µL/well of 1N HCl to terminate reaction. Plates were read using ELISA plate reader at 450 nm wavelength (instrunet SpectraMax M5e). Data Analysis was performed using Graphpad prism 5 software by using nonlinear regression (curve fit): log (agonist) vs. response, agonist is antibody concentration (nM) and response is OD value.

[3] = biological target: T3, hCD3epsilon-His (recombinant human CD3 epsilon) (human, UniProt P07766 23-126); test: ELISA on coated hCD3epsilon-His (FIG. 43A)
T3 construct: Bought protein; also called recombinant hCD3ε protein; human CD3ε
Protocol: as §2, with “Data Analysis was performed using Graphpad prism 5 software by using nonlinear regression (curve fit): log (agonist) vs. response, agonist is antibody concentration (nM) and response is OD value.” left out

NKG2A-CD94-ECD-hFc = biological target: T4, NKG2A-CD94-ECD-hFc (human, UniProt P26715 94-233; Q13241 32-179, limits assumed); test: ELISA on coated NKG2A-CD94-ECD-hFc (FIG. 43C)
T4 construct: extracellular domain; Lot 20200724002, 'provided by CP'; the two-chain layout here is only the reading of the name; also called human NKG2A (recombinant); NKG2A antigen; not shown: human Fc (hFc)
Protocol: as §2

[4] = biological target: T5, human CD3 epsilon on cells (Jurkat T cells, endogenous) (human, UniProt P07766 23-207); test: FACS on Jurkat T cells, endogenous hCD3ε (FIG. 45A)
T5 construct: whole, on cells; On cells CD3 epsilon stands in the TCR/CD3 complex; only the epsilon chain is named as target; also called hCD3ε on Jurkat; CD3ε expressing cells
Protocol: as §1, with “buffer.” for “buffer. Re-suspend the cells at 100 µL/well with secondary antibody (goat anti-human Ig Fab-FITC, Cat # 2085-02, Southern biotech) with 1:400 dilution and incubate the plate for 30 min at 4° C. in dark. Centrifuge the plate at 2000 rpm, 4° C. for 5 min and discard supernatant.”
Results: The expressed trispecific constructs were analyzed for their binding to cells expressing endogenous CD3ε, 5T4 and NKG2A/NKG2D.

[5] = biological target: T6, NKG2A/CD94 on CHO cells (CHOK1-NKG2A-CD94) (human, UniProt P26715 1-233; Q13241 1-179, limits assumed); test: FACS on CHO cells over-expressing NKG2A/CD94 (FIG. 45E)
T6 construct: whole, on cells; also called CHO cells over-expressing NKG2A/CD94; CHO cell line over expressing ectopic NKG2A
Protocol: (§3) Then wash the cells 3 times with 170 µL FACS buffer. Re-suspend the cells at 100 µL/well with secondary antibody (goat anti-human Ig Fab-FITC, Cat # 2085-02, Southern biotech) with 1:400 dilution and incubate the plate for 30 min at 4° C. in dark. Centrifuge the plate at 2000 rpm, 4° C. for 5 min and discard supernatant. Then wash the cells 3 times with FACS buffer and analyze the sample with FACS verse. The fluorescence intensity of the staining was measured using flow cytometer (BD, FACSVerse). The geometric mean fluorescence intensity (GMFI; median fluorescence intensity (MFI)) of set antibodies staining was calculated (BD FACSuite software). Dose-response curves were generated and EC50s for thetrispecific variants binding were calculated using GraphPad Prism software.
(§4) Results: The expressed trispecific constructs were analyzed for their binding to cells expressing endogenous CD3ε, 5T4 and NKG2A/NKG2D. […] (FIG. 45F).

[6] = biological target: T7, 5T4 on cells (NCI-H226 endogenous; CHO over-expressing 5T4) (UniProt Q13641 32-420, limits assumed); test: FACS on CHO cells over-expressing ectopic 5T4 (FIG. 45D)
T7 construct: whole, on cells
T7 sequence (looked up): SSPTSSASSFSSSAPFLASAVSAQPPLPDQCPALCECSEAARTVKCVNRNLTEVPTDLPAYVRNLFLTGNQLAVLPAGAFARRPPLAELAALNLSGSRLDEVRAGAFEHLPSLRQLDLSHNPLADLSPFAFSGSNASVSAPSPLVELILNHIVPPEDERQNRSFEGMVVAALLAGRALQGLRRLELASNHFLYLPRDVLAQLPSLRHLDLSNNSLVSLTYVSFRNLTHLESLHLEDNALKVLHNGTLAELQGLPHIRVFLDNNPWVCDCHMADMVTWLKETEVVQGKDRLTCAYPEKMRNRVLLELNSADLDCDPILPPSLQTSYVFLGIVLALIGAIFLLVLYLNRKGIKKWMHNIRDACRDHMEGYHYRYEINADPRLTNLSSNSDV
Protocol: as §3, §4

T1 sequence (P26715 whole entry): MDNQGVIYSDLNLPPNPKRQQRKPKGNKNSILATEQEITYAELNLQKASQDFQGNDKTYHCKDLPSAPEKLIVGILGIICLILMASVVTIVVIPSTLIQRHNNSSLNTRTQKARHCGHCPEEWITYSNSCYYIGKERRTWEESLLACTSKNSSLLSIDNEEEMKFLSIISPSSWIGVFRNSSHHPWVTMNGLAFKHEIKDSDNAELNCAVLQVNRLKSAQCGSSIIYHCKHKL
T6 sequence (P26715 whole entry, chain 1 of 2): as the sequence (P26715 whole entry) above
T6 sequence (Q13241 whole entry, chain 2 of 2): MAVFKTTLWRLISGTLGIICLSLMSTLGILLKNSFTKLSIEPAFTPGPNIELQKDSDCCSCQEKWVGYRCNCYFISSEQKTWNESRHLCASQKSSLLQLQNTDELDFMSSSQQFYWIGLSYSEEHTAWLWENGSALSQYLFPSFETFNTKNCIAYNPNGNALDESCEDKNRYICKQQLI
T4 sequence (P26715 94-233 limits assumed, chain 1 of 2): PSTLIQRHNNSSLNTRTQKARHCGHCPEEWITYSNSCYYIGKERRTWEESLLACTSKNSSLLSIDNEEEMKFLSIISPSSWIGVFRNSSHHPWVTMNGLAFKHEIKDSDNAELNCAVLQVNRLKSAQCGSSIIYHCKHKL
T4 sequence (Q13241 32-179 limits assumed, chain 2 of 2): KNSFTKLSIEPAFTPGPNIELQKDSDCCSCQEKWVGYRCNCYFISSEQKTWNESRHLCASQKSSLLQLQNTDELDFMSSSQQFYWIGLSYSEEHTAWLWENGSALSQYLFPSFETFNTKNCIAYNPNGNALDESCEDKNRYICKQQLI
T3 sequence (P07766 23-126 limits assumed): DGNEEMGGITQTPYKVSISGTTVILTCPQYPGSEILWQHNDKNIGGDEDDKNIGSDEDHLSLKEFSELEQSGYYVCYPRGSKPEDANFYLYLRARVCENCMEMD
T5 sequence (P07766 23-207): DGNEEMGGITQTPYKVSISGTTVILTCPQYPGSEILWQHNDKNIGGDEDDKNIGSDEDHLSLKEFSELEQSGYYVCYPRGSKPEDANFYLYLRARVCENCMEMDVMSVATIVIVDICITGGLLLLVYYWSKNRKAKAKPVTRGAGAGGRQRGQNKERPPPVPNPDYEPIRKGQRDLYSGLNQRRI

B1: IM-1093 Tribody, NKG2A mutant variant (other)
heavy: GGSGGSEVQLVESGGGLVQPGGSLRLSCAASGFTFNTYAMNWVRQAPGKGLEWVARIRSKYNNYATYYADSVKDRFTISRDDSKNTLYLQMNSLRAEDTAVYYCVRHGNFGNSYVSWFAYWGQGTMVTVSSASTKGPSVFPLAPSSKSTSGGTAALGCLVKDYFPEPVTVSWNSGALTSGVHTFPAVLQSSGLYSLSSVVTVPSSSLGTQTYICNVNHKPSNTKVDKRVEPKSCPPCGGGGSDIQMTQSPSSLSASVGDRVTITCRASENIYSALAWYQQKPGKAPKLLIYNAKTLAEGVPSRFSGSGSGTDFTLTISSLQPEDFATYYCQHHAGTPRTFGGGTKVEIKGGGGSGGGGSGGGGSGGGGSQVQLVQSGAEVKKPGASVKVSCKASGYTFTSYWMNWVRQAPGQGLEWMGRIDPYDSETHYAQKLQGRVTMTTDTSTSTAYMELRSLRSDDTAVYYCARGGYDFDVDTLYWFFDVWGQGTTVTVSS
light: GGSGGSQAVVTQEPSLTVSPGGTVTLTCRSSTGAVTTSNYANWVQQKPGQAPRGLIGGTNKRAPGTPARFSGSLLGGKAALTLSGVQPEDEAEYYCALWYSNLWVFGGGTKLTVLGQPKAAPSVTLFPPSSEELQANKATLVCLISDFYPGAVTVAWKADSSPVKAGVETTTPSKQSNNKYAASSYLSLTPEQWKSHRSYSCQVTHEGSTVEKTVAPTECPPCSGGGSDIQMTQSPSSLSASVGDRVTITCRASQGISNYLAWFQQKPGKAPKSLIYRANRLQSGVPSRFSGSGSGTDFTLTISSLQPEDVATYYCLQYDDFPWTFGQGTKLEIKGGGGSGGGGSGGGGSGGGGSQVQLVQSGAEVKKPGASVKVSCKASGYTFTSFWMHWVRQAPGQGLEWMGRIDPNRGGTEYNEKAKSRVTMTADKSTSTAYMELSSLRSEDTAVYYCAGGNPYYPMDYWGQGTTVTVSS
notes: also called NKG2A mutated Tribody
[1]
  binding result: no binding (tested: dilution series from 400 nM)
[2]
  EC50: 12 nM
[3]
  EC50: 1.84 nM
NKG2A-CD94-ECD-hFc
  binding result: no binding (tested: dilution series from 400 nM)
[4]
  EC50: 1.3 nM
[5]
  binding result: no binding (tested: dilution series from 400 nM)
[6]
  EC50: 1.3 nM
